Experimental data reported in PMC2606688, “High-fidelity correction of genomic uracil by human mismatch repair activities”.

Columns and labels:
[1] = molecular target: T1, MSH2 (MutSα subunit);MSH6 (MutSα subunit) (Homo sapiens;Homo sapiens, UniProt P43246;P52701 1-934;1-1360, |); test: EMSA; apparent Kd; homoduplex competitor EDL365/EDL366 in reaction; no Mg2+, 1 mM EDTA; 25 mM Tris pH 7.7, 100 mM KCl, 1 mM EDTA, 1 mM DTT, 7.5% glycerol, 10 fmol labeled duplex in 30 µl, homoduplex competitor, on ice 5 min; 6% native PAGE in 0.5x; settings: protein: recombinant;recombinant; tags: ;; copies: 1;1; label: 5'-32P on strand 1 (EDL56); blunt, 30 bp, single U•G mismatch
[2] = molecular target: T1, MSH2 (MutSα subunit);MSH6 (MutSα …); test: competition; unlabeled N1 at 50-fold molar excess against labeled N1 (EMSA); 25 mM Tris pH 7.7, 100 mM KCl, 1 mM EDTA, 1 mM DTT, 7.5% glycerol, 10 fmol labeled duplex in 30 µl, homoduplex competitor, on ice 5 min; 6% native PAGE in 0.5x; settings: protein: recombinant;recombinant; tags: ;; copies: 1;1; label: 5'-32P on strand 1 (EDL56); blunt, 30 bp, single U•G mismatch

B1: U•G duplex (EDL56/EDL364) (dsDNA)
DNA 1: GCCGAATTTCTAGAATUGAAAGCTTGCTAG
DNA 2: CTAGCAAGCTTTCGATTCTAGAAATTCGGC
modifications: deoxyuridine at position 17 of strand 1, mispaired with G
For B1, the Kd [1] was 70 nM and the binding signal [2] was > 5 fold decrease of probe binding.
